Experimental data taken from US20130108549A1 (ADLYFE, published 2013).
pyrene = pyrene fluorescent label

Molecular target: Aβ42 fibers (Homo sapiens (Human), UniProt P05067 672-713)
Assay: pyrene excimer fluorescence (FIG. 11A legend)

Aβ42 fibers, sequence (P05067 672-713 limits assumed): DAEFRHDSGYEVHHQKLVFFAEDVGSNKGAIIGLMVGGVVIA

B1: Peptide probe specific for Aβ (SEQ ID NO:36) labeled at each terminus with pyrene (peptide)
peptide: pyrene-KLVFFAEDVGSNKGAIIGLM-pyrene
notes: also called Aβ peptide probe; dipyrene labeled peptide probe
binding result: binds
